Results from PMC4564187, “Pharmacokinetic and Pharmacodynamic Characterisation of an Anti-Mouse TNF Receptor 1 Domain Antibody Formatted for In Vivo Half-Life Extension” (PLoS ONE, 2015).

T1: recombinant mouse sTNFR1 (mouse, UniProt P25118 30-212)
T1 construct: mouse TNF receptor 1 (TNFR1), soluble form; The methods call the protein amine-coupled to the CM5 chip only 'recombinant mouse TNFR1'; also called mouse TNFR1; mTNFR1; source: bought: R&D Systems (425-R1/CF)
T1 sequence (looked up): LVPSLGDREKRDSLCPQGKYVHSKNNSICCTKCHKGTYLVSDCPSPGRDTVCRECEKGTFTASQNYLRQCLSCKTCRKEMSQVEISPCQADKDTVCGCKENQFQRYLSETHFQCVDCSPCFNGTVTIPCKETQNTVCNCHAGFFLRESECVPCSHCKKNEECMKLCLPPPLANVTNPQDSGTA

B1: DMS5540 (bispecific antibody)
chain: EVQLLESGGGLVQPGGSLRLSCAASGFTFNRYSMGWLRQAPGKGLEWVSRIDSYGRGTYYEDPVKGRFSISRDNSKNTLYLQMNSLRAEDTAVYYCAKISQFGSNAFDYWGQGTQVTVSSASTDIQMTQSPSSLSASVGDRVTITCRASRPIGTMLSWYQQKPGKAPKLLILFGSRLQSGVPSRFSGSGSGTDFTLTISSLQPEDFATYYCAQAGTHPTTFGQGTKVEIKR
notes: anti-mouse TNFR1 VH dAb DOM1m-21-23; three residue linker (Ala-Ser-Thr); About 25 kDa; two human single variable domains on one chain; also called mouse TNFR1 antagonist; genetic fusion of DOM1m-21-23 with the AlbudAb DOM7h-11-12; source: E. coli BL21(DE3) strain derivatives, purified from culture supernatant (Protein-A, cation exchange, SEC when necessary)
B2: DOM1m-21-23 (antibody, V domains shown)
VH: EVQLLESGGGLVQPGGSLRLSCAASGFTFNRYSMGWLRQAPGKGLEWVSRIDSYGRGTYYEDPVKGRFSISRDNSKNTLYLQMNSLRAEDTAVYYCAKISQFGSNAFDYWGQGTQVTVSS

How the values were obtained:
recombinant mouse sTNFR1 [1] = molecular target: T1, recombinant mouse sTNFR1; test: SPR; Biacore T200, HBS-EP+, 25°C; mouse or human TNFR1 amine-coupled on CM5 chip; DMS5540 injected at 7 concentrations, 2-fold dilutions from 16 nM to 0.125 nM, 50 μl/min; 1:1 binding model; details: both partners purified
recombinant mouse sTNFR1 [2] = molecular target: T1, recombinant mouse sTNFR1; test: cell-based or functional assay

Binder | Kd (recombinant mouse sTNFR1 [1]) [nM] | koff (recombinant mouse sTNFR1 [1]) [s⁻¹] | kon (recombinant mouse sTNFR1 [1]) [M⁻¹ s⁻¹] | EC50 of inhibition of mouse TNF-α (20 pg/ml) induced cytotoxicity in mouse L929 cells (recombinant mouse sTNFR1 [2]) [nM]
B1 | 0.27 | 0.000217 | 798000 | 1.3
B2 | – | – | – | 1.7
